Laboratory results from US20220127585A1.
Where no end group is shown, it is not given here. [ ]: non-standard residue; d: D form. code O = not defined here; Dab = NCC[C@H](N)C(=O)O

T1: B-Raf kinase, P15056
T1 chain: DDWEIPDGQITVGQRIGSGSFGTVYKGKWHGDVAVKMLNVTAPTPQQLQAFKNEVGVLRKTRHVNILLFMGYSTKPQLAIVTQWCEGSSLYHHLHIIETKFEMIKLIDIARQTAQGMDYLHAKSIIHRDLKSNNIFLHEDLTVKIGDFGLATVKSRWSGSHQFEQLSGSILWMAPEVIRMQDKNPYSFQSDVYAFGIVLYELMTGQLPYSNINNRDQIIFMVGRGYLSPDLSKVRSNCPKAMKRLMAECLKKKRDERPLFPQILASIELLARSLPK

B1: SEQ ID NO: 33 (…) (peptide)
peptide: VCRKTRHVNILLCM
modifications: not checked
B2: SEQ ID NO: 53 (…) (peptide)
peptide: VLRKKRHVNELLFMG
modifications: not checked
B3: SEQ ID NO: 16 (…) (peptide)
peptide: VLRKTRHVNILLFM
modifications: not checked
B4: SEQ ID NO: 54 (VDab…) (peptide)
peptide: V[Dab]RKKRHVNELLDMG
B5: SEQ ID NO: 8 (peptide)
peptide: GVLRKARHVNILLFMGYST
modifications: not checked
B6: SEQ ID NO: 1 (B-Raf residues 503-521, …) (peptide)
peptide: GVLRKTRHVNILLFMGYST
modifications: not checked
B7: SEQ ID NO: 6 (peptide)
peptide: GVLLKTRHVNILLFMGYST
modifications: not checked
B8: SEQ ID NO: 60 (VLRKKMe…) (peptide)
peptide: VLRKKRHVAELLFMG
modifications: not checked
B9: SEQ ID NO: 58 (VLRKO…) (peptide)
peptide: VLRK[code O]RHVAELIFMG
modifications: reading uncertain
B10: SEQ ID NO: 47 (…) (peptide)
peptide: KRHVAELLFMG
modifications: not checked
B11: SEQ ID NO: 61 (…) (peptide)
peptide: KRHPAELLFMG
modifications: not checked
B12: SEQ ID NO: 31 (…) (peptide)
peptide: LRKTRHVNILLFMG
modifications: not checked
B13: SEQ ID NO: 22 (504-518 R506A, …) (peptide)
peptide: VLAKTRHVNILLFMG
modifications: not checked
B14: SEQ ID NO: 4 (503-521 L505A, …) (peptide)
peptide: GVARKTRHVNILLFMGYST
modifications: not checked
B15: SEQ ID NO: 37 (cyclo 508-513 T508K, I513E, …) (peptide)
peptide: LRKKRHVNELLFMG
modifications: not checked
B16: SEQ ID NO: 15 (503-518, …) (peptide)
peptide: GVLRKTRHVNILLFMG
modifications: not checked
B17: SEQ ID NO: 27 (504-518 I513A, …) (peptide)
peptide: VLRKTRHVNALLFMG
modifications: not checked
B18: SEQ ID NO: 28 (504-518 L514A, …) (peptide)
peptide: VLRKTRHVNIALFMG
modifications: not checked
B19: SEQ ID NO: 24 (504-518 R509A, …) (peptide)
peptide: VLRKTAHVNILLFMG
modifications: not checked
B20: SEQ ID NO: 12 (503-521 L515I, …) (peptide)
peptide: GVLRKTRHVNILIFMGYST
modifications: not checked
B21: SEQ ID NO: 30 (504-518 M517A, …) (peptide)
peptide: VLRKTRHVNILLFAG
modifications: not checked
B22: SEQ ID NO: 11 (503-521 L514A, …) (peptide)
peptide: GVLRKTRHVNIALFMGYST
modifications: not checked
B23: SEQ ID NO: 25 (504-518 H510A, …) (peptide)
peptide: VLRKTRAVNILLFMG
modifications: not checked
B24: SEQ ID NO: 32 (505-518 R506L, …) (peptide)
peptide: LLKTRHVNILLFMG
modifications: not checked
B25: SEQ ID NO: 21 (504-518 L505A, …) (peptide)
peptide: VARKTRHVNILLFMG
modifications: not checked
B26: SEQ ID NO: 5 (503-521 R506E, …) (peptide)
peptide: GVLEKTRHVNILLFMGYST
modifications: not checked
B27: SEQ ID NO: 7 (503-521 T508D, …) (peptide)
peptide: GVLRKDRHVNILLFMGYST
modifications: not checked
B28: SEQ ID NO: 3 (scrambled, …) (peptide)
peptide: GRINKGRHTFLLVVMTYSL
modifications: not checked
B29: SEQ ID NO: 10 (503-521 V511A, …) (peptide)
peptide: GVLRKTRHANILLFMGYST
modifications: not checked
B30: SEQ ID NO: 29 (504-518 F516A, …) (peptide)
peptide: VLRKTRHVNILLAMG
modifications: not checked
B31: SEQ ID NO: 45 (…) with N-Cap N1 (peptide)
peptide: TRHVNILLFMG
modifications: not checked
B32: SEQ ID NO: 45 (…) with N-Cap N2 (peptide)
peptide: TRHVNILLFMG
modifications: not checked

Biological target: T1, B-Raf kinase, P15056
Test: binding affinity with BRAF, Table 2 (method not given; the Methods describe fluorescence titration)

Kd | Binder
360 nM | B1
1890 nM | B2
5750 nM | B3
370 nM | B4

Biological target: T1, B-Raf kinase, P15056
Test: ITC

ΔH | Binder
-8.32 kcal/mol | B5

Biological target: T1, B-Raf kinase, P15056
Test: Kd for the B-Raf dimer interface (FIG. 1), fluorescence titration

Kd | Binder
3840 nM | B6
540 nM | B7

Biological target: T1, B-Raf kinase, P15056
Test: binding affinity, Table 3 (method not given; the Methods describe fluorescence titration)

Kd | Binder
39 nM | B8
170 nM | B9
1890 nM | B2
590 nM | B10
160 nM | B11
1880 nM | B12

Biological target: T1, B-Raf kinase, P15056
Test: intrinsic fluorescence titration (ITF) of B-Raf in solution

Kd | Binder
360 nM | B13
3890 nM | B14
1890 nM | B15
1880 nM | B16
2690 nM | B17
1020 nM | B18
2400 nM | B19
4100 nM | B20
540 nM | B21
9800 nM | B22
2700 nM | B23
550 nM | B24
450 nM | B25
1090 nM | B26
2200 nM | B27
2960 nM | B28
4750 nM | B29
570 nM | B30
190 nM | B12

Biological target: T1, B-Raf kinase, P15056
Test: intrinsic tryptophan fluorescence (ITF), column head 'Kd (ITF) (µM)'

Kd | Binder
50 nM | B31
84 nM | B32
